Data on ten molecules can be found in EP4814012A1 (The United Bio-Technology (Hengqin) Co., Ltd., dated 2026).

In experiment [1] the target is T1, hIL-4Rα.ECD (human, UniProt P24394 26-232).
T1 construct: extracellular domain; also called hIL-4Rα protein
The experiment is described as follows: SPR (Biacore 8K), antibody captured, hIL-4Rα.ECD analyte, 25°C.

Experiment [2] deals with T2, hTSLP (human, UniProt Q969D9 29-159). Description: cell-based or functional assay.
Experiment [3] has as its target T2, hTSLP. Description: SPR (Biacore 8K), antibody captured, hTSLP analyte, 25°C. On the technique in general: SPR reads the build-up and loss of mass on a sensor chip optically.
Experiment [4] has as its target T3, human IL-4Rα on cells (human, UniProt P24394 26-825). Description: cell-based or functional assay.
Experiment [5] deals with T3, human IL-4Rα on cells. The experiment is described as follows: cell-based or functional assay. This is another data set of the same source.
For experiment [6], the target named is T1, hIL-4Rα.ECD. Description: SPR (Biacore 8K), antibody captured by anti-mouse Fc, hIL-4Rα.ECD analyte, 25°C.
Experiment [7] concerns the target T3, human IL-4Rα on cells. The experiment is described as follows: flow cytometry on CHO-K1 cells overexpressing hIL-4Rα.
Experiment [8] deals with T1, hIL-4Rα.ECD. Description: SPR, antibody captured by anti-human Fc on CM5, hIL-4Rα.ECD analyte.
Experiment [9] concerns the target T3, human IL-4Rα on cells. Description: cell-based or functional assay. This is another data set of the same source.
Experiment [10] addresses T3, human IL-4Rα on cells. The experiment is described as follows: cell-based or functional assay. This is another data set of the same source.
Experiment [11] addresses T3, human IL-4Rα on cells. Description: cell-based or functional assay. The source holds these as a separate data set.
For experiment [12], the target named is T1, hIL-4Rα.ECD. Description: SPR (Biacore 8K), method same as 1.9, hIL-4Rα.ECD analyte.

B1: MMT (bispecific antibody, human IgG4 S228P, kappa)
heavy: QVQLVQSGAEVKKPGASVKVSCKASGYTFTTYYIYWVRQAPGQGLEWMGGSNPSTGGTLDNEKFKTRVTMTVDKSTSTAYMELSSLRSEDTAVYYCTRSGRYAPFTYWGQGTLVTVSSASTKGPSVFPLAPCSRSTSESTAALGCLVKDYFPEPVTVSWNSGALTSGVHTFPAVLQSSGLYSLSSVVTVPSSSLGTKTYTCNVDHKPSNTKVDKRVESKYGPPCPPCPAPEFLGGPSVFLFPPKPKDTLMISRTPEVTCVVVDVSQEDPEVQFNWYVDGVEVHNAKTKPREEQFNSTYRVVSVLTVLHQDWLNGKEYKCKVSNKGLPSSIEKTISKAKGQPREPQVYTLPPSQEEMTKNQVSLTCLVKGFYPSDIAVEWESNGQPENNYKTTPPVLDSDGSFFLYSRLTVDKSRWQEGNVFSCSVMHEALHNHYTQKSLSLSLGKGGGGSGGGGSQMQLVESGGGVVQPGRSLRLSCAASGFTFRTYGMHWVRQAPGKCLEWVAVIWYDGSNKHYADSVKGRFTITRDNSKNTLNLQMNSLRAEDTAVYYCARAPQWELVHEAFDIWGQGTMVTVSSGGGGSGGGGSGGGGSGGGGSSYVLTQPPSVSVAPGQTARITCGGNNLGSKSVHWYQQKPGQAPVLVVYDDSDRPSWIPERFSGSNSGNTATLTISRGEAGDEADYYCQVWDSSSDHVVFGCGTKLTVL
light: DIQMTQSPSSLSASVGDRVTITCKASQDVSTSVAWYQQKPGKAPKLLIYSASYRFTGVPSRFSGSGSGTDFTFTISSLQPEDFATYYCQHYSTTPFTFGQGTKLEIKRTVAAPSVFIFPPSDEQLKSGTASVVCLLNNFYPREAKVQWKVDNALQSGNSQESVTEQDSKDSTYSLSSTLTLSKADYEKHKVYACEVTHQGLSSPVTKSFNRGEC
notes: the junction should be checked against them; also called MMT bispecific antibody; MMT molecule
For B1, in [1], binding was characterised by a dissociation constant (Kd) of 0.0598 nM; the koff (in general, a measure of how fast the partners let go of each other) stood at 4.35e-05 s⁻¹; the kon (in general, the rate constant with which the complex forms) came to 727000 M⁻¹ s⁻¹. The “IC50 (nM), hTSLP inhibitory activity, reporter gene assay (HEK-293T-hTSLPR-IL7Ra-STAT5-Luciferase cells)” value in [2] was 0.3 nM. Also, in [3], the Kd (usually the free concentration of one partner at which half of the binding sites on the other are occupied at equilibrium, for simple one-to-one binding) amounted to 0.0188 nM; the koff worked out at 5.88e-05 s⁻¹; the kon came out at 3.14e+06 M⁻¹ s⁻¹. Further, the “IC50 (pM), hIL-13 inhibitory activity, reporter gene assay (HEK-293T.STAT6-GFP cells)” value (“IC50 (pM), hIL-13 inhibitory activity” below) in experiment [4] amounted to 133 pM.

B2: 1.34.4-Murine (antibody, V domains shown)
VH: QVQLQQPGAELVKPGASMKLSCKASGYTFTTYYIYWVKQRPGQGLEWIGGSNPSTGGTLFNEKFKTKATLTVDKYSSTAYMELSSLTFEDSAVYFCTRSGRYAPFTYWGQGTLVTVSA
VL: DIVMTQSHKVLSTSVGDRVIITCKASQDVSTSVAWYQQRPGHSPKLLIYSASYRFTGVPDRFTGSGSGTDFTFTISSVQAEDLAVYNCQQYSTTPFTFGSGTKLEIK
notes: See recheck
For the molecule B2, the “IC50 (nM), Cell-based Assay Data (hIL-13), STAT6-GFP reporter gene assay” value (“IC50 (nM), Cell-based Assay Data” below) in experiment [5] turned out to be 1.38 nM. In experiment [6], this molecule displayed a Kd of 0.369 nM, a koff of 0.000133 s⁻¹ and a kon of 361000 M⁻¹ s⁻¹. The 50% effective concentration (EC50) (as a rule, the concentration that produces a half-maximal response) in [7] stood at 0.35 nM.

B3: Dupilumab (antibody, V domains shown)
VH: EVQLVESGGGLEQPGGSLRLSCAGSGFTFRDYAMTWVRQAPGKGLEWVSSISGSGGNTYYADSVKGRFTISRDNSKNTLYLQMNSLRAEDTAVYYCAKDRLSITIRPRYYGLDVWGQGTTVTVSS
VL: DIVMTQSPLSLPVTPGEPASISCRSSQSLLYSIGYNYLDWYLQKSGQSPQLLIYLGSNRASGVPDRFSGSGSGTDFTLKISRVEAEDVGFYYCMQALQTPYTFGQGTKLEIKR
In the case of B3, in experiment [1], the affinity, expressed as Kd, was 0.0616 nM; the off-rate (koff) stood at 5.7e-05 s⁻¹; the kon turned out to be 924000 M⁻¹ s⁻¹. In addition, in experiment [8], binding was characterised by a dissociation constant (Kd) of 0.0379 nM, the koff stood at 5.4e-05 s⁻¹ and the kon came out at 1.43e+06 M⁻¹ s⁻¹. For the same molecule, the “IC50 (nM), Cell-based Assay Data” value in experiment [5] came to 0.81 nM. Moreover, the “IC50(pM), hIL-13 Blocking Activity, TF-1 proliferation inhibition assay” value (“IC50(pM) … TF-1 proliferation inhibition assay” below) in experiment [9] was determined as 140 pM. The “IC50(pM), hIL-4 Blocking Activity by Reporter Gene Assay” value (from here on “IC50(pM), hIL-4 Blocking Activity”) in experiment [10] is 201 pM. The EC50 in experiment [7] turned out to be 0.3 nM. Also, the “IC50 (pM), hIL-13 inhibitory activity” value in experiment [4] was 41 pM.

B4: m8 (antibody, human IgG4 S228P, kappa, V domains shown)
VH: QVQLVQSGAEVKKPGASVKVSCKASGYTFTTYYIYWVRQAPGQGLEWMGGSNPSTGGTLDNEKFKTRVTMTVDKSTSTAYMELSSLRSEDTAVYYCTRSGRYAPFTYWGQGTLVTVSS
VL: DIQMTQSPSSLSASVGDRVTITCKASQDVSTSVAWYQQKPGKAPKLLIYSASYRFTGVPSRFSGSGSGTDFTFTISSLQPEDFATYYCQHYSTTPFTFGQGTKLEIKR
notes: also called m8 molecule; anti-IL-4R antibody m8
In experiment [1], B4 displayed a Kd of 0.0489 nM, a koff of 1.39e-05 s⁻¹ and a kon of 285000 M⁻¹ s⁻¹. In experiment [8], this molecule came in with a Kd of 0.0437 nM, a koff of 3.95e-05 s⁻¹ and a kon of 903000 M⁻¹ s⁻¹. Further, in experiment [9], the “IC50(pM) … TF-1 proliferation inhibition assay” value came to 125 pM. For the same molecule, the “IC50(pM), hIL-4 Blocking Activity” value in [10] is 16.4 pM. Further, in experiment [11], the “IC50(pM), hIL-4 inhibitory activity, reporter gene assay (HEK-293T.STAT6-GFP cells)” value was 210 pM. The “IC50 (pM), hIL-13 inhibitory activity” value in [4] came to 80 pM.

B5: 1.34.4-z18 (antibody, human IgG4, V domains shown)
VH: QVQLVQSGAEVKKPGASVKVSCKASGYTFTTYYIYWVRQAPGQGLEWMGGSNPSTGGTLFNEKFKTRVTMTVDKSTSTAYMELSSLRSEDTAVYYCTRSGRYAPFTYWGQGTLVTVSS
VL: DIQMTQSPSSLSASVGDRVTITCKASQDVSTSVAWYQQKPGKAPKLLIYSASYRFTGVPSRFSGSGSGTDFTFTISSLQPEDFATYYCQQYSTTPFTFGQGTKLEIK
notes: Humanized with back-mutations; also called 1.34.4-z18 humanized antibody molecule
In experiment [12], B5 came in with a Kd of 0.567 nM, a koff of 0.000137 s⁻¹ and a kon of 242000 M⁻¹ s⁻¹.

B6: 1.34.4 (humanized, CDR-grafted) (antibody, V domains shown)
VH: QVQLVQSGAEVKKPGASVKVSCKASGYTFTTYYIYWVRQAPGQGLEWMGGSNPSTGGTLFNEKFKTRVTMTRDTSTSTVYMELSSLRSEDTAVYYCARSGRYAPFTYWGQGTLVTVSS
VL: DIQMTQSPSSLSASVGDRVTITCKASQDVSTSVAWYQQKPGKAPKLLIYSASYRFTGVPSRFSGSGSGTDFTLTISSLQPEDFATYYCQQYSTTPFTFGQGTKLEIK
In experiment [12], B6 yielded a Kd of 0.512 nM, a koff of 0.0001 s⁻¹ and a kon of 196000 M⁻¹ s⁻¹.

B7: m27 (antibody, V domains shown)
VH: QVQLVQSGAEVKKPGASVKVSCKASGYTFTTYYIYWVRQAPGQGLEWMGGSNPSTGGTLENEKFKTRVTMTVDKSTSTAYMELSSLRSEDTAVYYCTRSGRYATFTYWGQGTLVTVSS
VL: DIQMTQSPSSLSASVGDRVTITCKASQDVSTSVAWYQQKPGKAPKLLIYSASYRFTGVPSRFSGSGSGTDFTFTISSLQPEDFATYYCVHYSTTPFTFGQGTKLEIK
notes: captured by anti-human Fc); also called m27 molecule
Regarding B7, in [8], the Kd turned out to be 0.196 nM, the koff came to 0.000112 s⁻¹ and the kon worked out at 568000 M⁻¹ s⁻¹. The “IC50(pM) … TF-1 proliferation inhibition assay” value in experiment [9] was found to be 58.8 pM. Moreover, the “IC50(pM), hIL-4 Blocking Activity” value in experiment [10] was found to be 249 pM.

B8: m21 (antibody, V domains shown)
VH: QVQLVQSGAEVKKPGASVKVSCKASGYTFTTYYIYWVRQAPGQGLEWMGGSNPSTGGTLENEKFKTRVTMTVDKSTSTAYMELSSLRSEDTAVYYCTRSGRYAPFTYWGQGTLVTVSS
VL: DIQMTQSPSSLSASVGDRVTITCKASQDVSTSVAWYQQKPGKAPKLLIYSASYRFTGVPSRFSGSGSGTDFTFTISSLQPEDFATYYCVHYSTTPFTFGQGTKLEIK
notes: captured by anti-human Fc); also called m21 molecule
With B8, in [8], the Kd was found to be 0.133 nM, the koff amounted to 7.76e-05 s⁻¹ and the kon amounted to 582000 M⁻¹ s⁻¹. The “IC50(pM) … TF-1 proliferation inhibition assay” value in [9] is 66.5 pM. Moreover, in [10], the “IC50(pM), hIL-4 Blocking Activity” value was found to be 286 pM.

B9: 2.46.13-Murine (antibody, V domains shown)
VH: DVKLVESGGGLVKLGGSLKLSCAASGFTFSSYYMSWVRQTPEKRLELVAAINSNGGSTYSPDTVKGRFTISRDNAKNTLYLQMSSLKSEDTALYYCARRSLLGNHRDWYFDVWGAGTTVTVSS
VL: DIQMTQSPASLSASVGETVTITCRASENIYSYLAWYQQKQGKSPQLLVYNAKTLADGVPSRFSGSGSGTQFSLKINTLQPEDFGSYYCLHHYGTPLTFGAGTKLELK
notes: See recheck
Take B9: the “IC50 (nM), Cell-based Assay Data” value in experiment [5] came out at 2.23 nM. In experiment [6], this molecule gave a Kd of 0.306 nM, a koff of 0.000118 s⁻¹ and a kon of 385000 M⁻¹ s⁻¹. For the same molecule, a half-maximal effect in [7] (EC50) was put at 0.28 nM.

B10: MTM (bispecific antibody, human IgG2, lambda)
heavy: QMQLVESGGGVVQPGRSLRLSCAASGFTFRTYGMHWVRQAPGKGLEWVAVIWYDGSNKHYADSVKGRFTITRDNSKNTLNLQMNSLRAEDTAVYYCARAPQWELVHEAFDIWGQGTMVTVSSASTKGPSVFPLAPCSRSTSESTAALGCLVKDYFPEPVTVSWNSGALTSGVHTFPAVLQSSGLYSLSSVVTVPSSNFGTQTYTCNVDHKPSNTKVDKTVERKCCVECPPCPAPPVAGPSVFLFPPKPKDTLMISRTPEVTCVVVDVSHEDPEVQFNWYVDGVEVHNAKTKPREEQFNSTFRVVSVLTVVHQDWLNGKEYKCKVSNKGLPAPIEKTISKTKGQPREPQVYTLPPSREEMTKNQVSLTCLVKGFYPSDIAVEWESNGQPENNYKTTPPMLDSDGSFFLYSKLTVDKSRWQQGNVFSCSVMHEALHNHYTQKSLSLSPGKGGGGSGGGGSQVQLVQSGAEVKKPGASVKVSCKASGYTFTTYYIYWVRQAPGQCLEWMGGSNPSTGGTLDNEKFKTRVTMTVDKSTSTAYMELSSLRSEDTAVYYCTRSGRYAPFTYWGCGTLVTVSSGGGGSGGGGSGGGGSGGGGSDIQMTQSPSSLSASVGDRVTITCKASQDVSTSVAWYQQKPGKAPKLLIYSASYRFTGVPSRFSGSGSGTDFTFTISSLQPEDFATYYCQHYSTTPFTFGCGTKLEIK
light: SYVLTQPPSVSVAPGQTARITCGGNNLGSKSVHWYQQKPGQAPVLVVYDDSDRPSWIPERFSGSNSGNTATLTISRGEAGDEADYYCQVWDSSSDHVVFGGGTKLTVLGQPKAAPSVTLFPPSSEELQANKATLVCLISDFYPGAVTVAWKADSSPVKAGVETTTPSKQSNNKYAASSYLSLTPEQWKSHRSYSCQVTHEGSTVEKTVAPTECS
notes: the junction should be checked against them; also called MTM bispecific antibody; MTM molecule
In [1], B10 returned a Kd of 0.0659 nM, a koff of 3.48e-05 s⁻¹ and an on-rate constant (kon) of 528000 M⁻¹ s⁻¹. Also, the “IC50(pM), hIL-4 inhibitory activity, reporter gene assay (HEK-293T.STAT6-GFP cells)” value in experiment [11] came out at 170 pM. The “IC50 (nM), hTSLP inhibitory activity, reporter gene assay (HEK-293T-hTSLPR-IL7Ra-STAT5-Luciferase cells)” value in experiment [2] came to 0.14 nM. Moreover, in experiment [3], the Kd was 0.00296 nM, the koff was 3.5e-05 s⁻¹ and the kon amounted to 1.18e+07 M⁻¹ s⁻¹. The “IC50 (pM), hIL-13 inhibitory activity” value in experiment [4] is 66.5 pM.
